The numbers were not newly measured in publication PMC11348067, which cites them from elsewhere.

This data set concerns the target Mucin 1 (human) (UniProt P15941). Kind of data set: not stated (cited). Conditions: aptamer/padlock annealed in water with 80 mM NaCl (2 uL of 800 mM in 20 uL), then 40 uL protein added, 30 min; pH and binding temperature not stated; ligation ….

Chain of Mucin 1 (human) (P15941 24-1158): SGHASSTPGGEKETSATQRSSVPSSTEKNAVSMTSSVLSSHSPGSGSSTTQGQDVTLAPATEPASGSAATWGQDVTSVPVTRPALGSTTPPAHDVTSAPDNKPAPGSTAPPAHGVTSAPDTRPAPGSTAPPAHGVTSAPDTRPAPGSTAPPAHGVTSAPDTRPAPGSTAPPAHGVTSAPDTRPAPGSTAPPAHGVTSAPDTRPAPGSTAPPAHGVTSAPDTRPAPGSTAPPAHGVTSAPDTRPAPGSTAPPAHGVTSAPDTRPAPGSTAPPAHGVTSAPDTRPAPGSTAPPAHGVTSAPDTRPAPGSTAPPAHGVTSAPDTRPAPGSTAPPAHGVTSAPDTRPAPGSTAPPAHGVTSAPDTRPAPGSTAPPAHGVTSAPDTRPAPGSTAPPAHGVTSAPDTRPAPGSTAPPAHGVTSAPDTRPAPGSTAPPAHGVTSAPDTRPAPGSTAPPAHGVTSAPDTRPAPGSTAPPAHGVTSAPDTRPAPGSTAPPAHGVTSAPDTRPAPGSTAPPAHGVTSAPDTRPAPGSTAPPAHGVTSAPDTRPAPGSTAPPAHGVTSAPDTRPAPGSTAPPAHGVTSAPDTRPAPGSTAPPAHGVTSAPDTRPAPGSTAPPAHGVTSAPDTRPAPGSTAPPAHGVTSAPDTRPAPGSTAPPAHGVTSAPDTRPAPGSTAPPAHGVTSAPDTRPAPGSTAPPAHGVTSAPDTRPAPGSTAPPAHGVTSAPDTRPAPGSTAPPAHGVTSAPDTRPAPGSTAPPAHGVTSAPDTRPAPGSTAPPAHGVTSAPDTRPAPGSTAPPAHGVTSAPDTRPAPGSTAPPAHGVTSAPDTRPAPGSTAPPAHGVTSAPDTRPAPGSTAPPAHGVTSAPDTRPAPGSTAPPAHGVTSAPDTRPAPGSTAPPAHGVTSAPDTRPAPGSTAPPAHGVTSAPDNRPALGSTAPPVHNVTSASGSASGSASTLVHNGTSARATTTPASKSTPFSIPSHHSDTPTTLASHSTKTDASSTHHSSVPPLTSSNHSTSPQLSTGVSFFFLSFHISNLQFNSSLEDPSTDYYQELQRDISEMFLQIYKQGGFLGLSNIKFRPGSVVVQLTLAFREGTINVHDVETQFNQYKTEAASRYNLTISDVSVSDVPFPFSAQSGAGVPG

On to “GCAGTTGATCCTTTGGATACCCTGGAGTGA [Mucin 1 aptamer]”, for which the Kd is 0.135 nM.

As a reminder, the Kd is the concentration at which binding is half-saturated.
